Earlier results, collected in publication PMC8241641 (European Journal of Nuclear Medicine and Molecular Imaging, 2021).

Parameters: method as in PMID 28864620

For [^177Lu]Lu-DOTA-TATE, the “Dose to the bone marrow typically calculated” value is listed as 0.03–0.07 Gy/GBq.
